Test results taken from publication PMC7933334, “The methyltransferase SETD2 couples transcription and splicing by engaging mRNA processing factors through its SHI domain” (Nature Communications, 2021).

Target: T1, GST-His-hnRNP L RRM2 (162–321) (human, UniProt P14866 162-321)
T1 construct: bait of the GST pull-down; source: E. coli Rosetta 2 (DE3) pLysS, purified (glutathione magnetic beads)
T1 sequence (looked up): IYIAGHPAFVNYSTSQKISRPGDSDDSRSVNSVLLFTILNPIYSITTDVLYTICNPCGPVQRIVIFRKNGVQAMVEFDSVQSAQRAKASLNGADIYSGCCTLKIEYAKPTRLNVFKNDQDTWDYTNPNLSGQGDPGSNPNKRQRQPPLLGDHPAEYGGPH
Experiment: pull-down; GST pull-down with recombinant proteins purified from bacteria; GST-His-hnRNP L segments as baits, FLAG-SETD2 fragments as preys; RNase included in the binding assay; western blot with anti-His and anti-FLAG
Conditions: both partners purified

binding result: binds
B1: FLAG-SETD2 SHI (2114–2263) (domain or fragment, human, UniProt Q9BYW2 2114-2263, looked up)
chain: NKLSTEERRKLFEQEVAQREAQKQQQQMQNLGMTSPLPYDSLGYNAPHHPFAGYPPGYPMQAYVDPSNPNAGKVLLPTPSMDPVCSPAPYDHAQPLVGHSTEPLSAPPPVPVVPHVAAPVEVSSSQYVAQSDGVVHQDSSVAVLPVPAPG
notes: The methods say that proteins were eluted with either glutathione or AcTEV protease; source: E. coli Rosetta 2 (DE3) pLysS, purified (glutathione magnetic beads)
